Consider eight molecules from patent US20260027208A1 (published 2026).

Where two headings read alike, the source gives them in different places.

For experiment [1], the target named is T1, KRAS G12D mutant peptide presented by HLA-A*11:01 on cells (human). The experiment in a line: cell-based or functional assay.
For experiment [2], the target named is T1, KRAS G12D mutant peptide presented by …. Description: cell-based or functional assay. This is another data set of the same source.
Experiment [3] deals with T2, KRAS G12D peptide on HLA-A*11:01 (human).
T2 peptide: VVVGADGVGK
Description: CD137 by flow cytometry; transduced primary CD4+ and CD8+ T cells, TRAC/TRBC double knockout; G12D peptide titrated (FIG. 3D); full-length, on cells. The protocol:
(§1) Primary CD4+ and CD8+ T cells were transduced with a KRAS-G12D-specific T cell receptor (TCR69, TCR79, TCR80, TCR81, or TCR91), and were either edited to knockout TRAC and TRBC or left with unmodified TRAC and TRBC genes, and expanded for several days. Engineered T cells were incubated with G12D peptide at decreasing concentrations and T cell responses were assessed by measuring CD137 expression.
(§2) In additional experiments, the effect of TRAC and TRBC knockout was evaluated for primary CD4+ and CD8+ T cells transduced with further KRAS-G12D-specific TCRs. The double knockout improved TCR avidity for multiple TCRs as shown in FIG. 3C (corresponding EC50 values in TABLE 2 and Cmax values in TABLE 3), FIG. 3D (corresponding EC50 values in TABLE 4), and FIG. 3E (corresponding EC50 values in TABLE 5).
A general note: Flow cytometry measures light scatter and fluorescence of single cells or particles in a stream.

Experiment [4] has as its target T2, KRAS G12D peptide on HLA-A*11:01. Description: CD137 by flow cytometry; transduced primary CD4+ and CD8+ T cells, TRAC/TRBC wild type; G12D peptide titrated (FIG. 3E); full-length, on cells. As for the experimental part: as §1, §2
The target is the same in experiment [5]. Description: CD137 by flow cytometry; transduced primary CD4+ and CD8+ T cells, TRAC/TRBC wild type; G12D peptide titrated (FIG. 3D); full-length, on cells. As for the experimental part:
as §1, §2

The target is the same in experiment [6]. The experiment in a line: CD137 by flow cytometry; transduced primary CD4+ and CD8+ T cells, TRAC/TRBC double knockout; G12D peptide titrated (FIG. 3E); full-length, on cells. As for the experimental part:
as §1, §2

B1: TCR2 (TCR)
TCR alpha: AQTVTQSQPEMSVQEAETVTLSCTYDTSENNYYLFWYKQPPSRQMILVIRQEAYKQQNATENRFSVNFQKAAKSFSLKISDSQLGDTAMYFCAFMYPSQGGSEKLVFGKGMKLTVNPNIQNPDPAVYQLRDSKSSDKSVCLFTDFDSQTNVSQSKDSDVYITDKCVLDMRSMDFKSNSAVAWSNKSDFACANAFNNSIIPEDTFFPSPESSCDVKLVEKSFETDTNLNFQNLSVIGFRILLLKVAGFNLLMTLRLWSS
TCR beta: MGPGLLCWVLLCLLGAGSVETGVTQSPTHLIKTRGQQVTLRCSSQSGHNTVSWYQQALGQGPQFIFQYYREEENGRGNFPPRFSGLQFPNYSSELNVNALELDDSALYLCASSSPGFRSYGYTFGSGTRLTVVEDLKNVFPPEVAVFEPSEAEISHTQKATLVCLATGFYPDHVELSWWVNGKEVHSGVCTDPQPLKEQPALNDSRYCLSSRLRVSATFWQNPRNHFRCQVQFYGLSENDEWTQDRAKPVTQIVSAEAWGRADCGFTSESYQQGVLSATILYEILLGKATLYAVLVSALVLMAMVKRKDSRG
As for B1, in experiment [1], the T cell activation EC50 (CD137 vs G12D peptide dose), TRAC/TRBC double knockout T cells was 7.3 nM and the T cell activation EC50 (CD137 vs G12D peptide dose), WT TRAC/TRBC T cells worked out at 22.2 nM. In experiment [2], this molecule gave a Cmax (%) of CD137 T cell activation by G12D peptide, without knockout of TRAC and TRBC of 42.7%; a T cell activation EC50 (CD137 vs G12D peptide dose), TRAC/TRBC double knockout T cells of 10.1 nM; a T cell activation EC50 (CD137 vs G12D peptide dose), WT TRAC/TRBC T cells of 31.6 nM.

B2: TCR5 (TCR)
TCR alpha: RGEDVEQSLFLSVREGDSSVINCTYTDSSSTYLYWYKQEPGAGLQLLTYIFSNMDMKQDQRLTVLLNKKDKHLSLRIADTQTGDSAIYFCAERDAGNNRKLIWGLGTSLAVNPNIQNPDPAVYQLRDSKSSDKSVCLFTDFDSQTNVSQSKDSDVYITDKCVLDMRSMDFKSNSAVAWSNKSDFACANAFNNSIIPEDTFFPSPESSCDVKLVEKSFETDTNLNFQNLSVIGFRILLLKVAGFNLLMTLRLWSS
TCR beta: GAGVSQSPRYKVAKRGQDVALRCDPISGHVSLFWYQQALGQGPEFLTYFQNEAQLDKSGLPSDRFFAERPEGSVSTLKIQRTQQEDSAVYLCASSLEGGDTQYFGPGTRLTVLEDLKNVFPPEVAVFEPSEAEISHTQKATLVCLATGFYPDHVELSWWVNGKEVHSGVCTDPQPLKEQPALNDSRYCLSSRLRVSATFWQNPRNHFRCQVQFYGLSENDEWTQDRAKPVTQIVSAEAWGRADCGFTSESYQQGVLSATILYEILLGKATLYAVLVSALVLMAMVKRKDSRG
Take B2: in experiment [1], the T cell activation EC50 (CD137 vs G12D peptide dose), TRAC/TRBC double knockout T cells came out at 9.4 nM and the T cell activation EC50 (CD137 vs G12D peptide dose), WT TRAC/TRBC T cells was 37.8 nM. In experiment [2], the Cmax (%) of CD137 T cell activation by G12D peptide, without knockout of TRAC and TRBC worked out at 23.9%; the T cell activation EC50 (CD137 vs G12D peptide dose), TRAC/TRBC double knockout T cells is 7.6 nM; the T cell activation EC50 (CD137 vs G12D peptide dose), WT TRAC/TRBC T cells is 36.3 nM.

B3: TCR1 (TCR, V domains shown)
Valpha: GDSVTQMEGPVTLSEEAFLTINCTYTATGYPSLFWYVQYPGEGLQLLLKATKADDKGSNKGFEATYRKETTSFHLEKGSVQVSDSAVYFCALSDRVGGARLMFGDGTQLVVKP
Vbeta: EADIYQTPRYLVIGTGKKITLECSQTMGHDKMYWYQQDPGMELHLIHYSYGVNSTEKGDLSSESTVSRIRTEHFPLTLESARPSHTSQYLCASSEGLYNEQFFGPGTRLTVL
Turning to B3, the EC50 of peptide in experiment [3] came out at 12.2 nM; in experiment [4], 119 nM; in experiment [5], 51.1 nM; in experiment [6], 64.1 nM.

B4: TCR6 (TCR)
TCR alpha: GQQLNQSPQSMFIQEGEDVSMNCTSSSIFNTWLWYKQDPGEGPVLLIALYKAGELTSNGRLTAQFGITRKDSFLNISASIPSDVGIYFCAGRREGAQKLVFGQGTRLTINPNIQNPDPAVYQLRDSKSSDKSVCLFTDFDSQTNVSQSKDSDVYITDKCVLDMRSMDFKSNSAVAWSNKSDFACANAFNNSIIPEDTFFPSPESSCDVKLVEKSFETDTNLNFQNLSVIGFRILLLKVAGFNLLMTLRLWSS
TCR beta: GAGVSQSPRYKVAKRGQDVALRCDPISGHVSLFWYQQALGQGPEFLTYFQNEAQLDKSGLPSDRFFAERPEGSVSTLKIQRTQQEDSAVYLCASSSTLMGVNIQYFGAGTRLSVLEDLKNVFPPEVAVFEPSEAEISHTQKATLVCLATGFYPDHVELSWWVNGKEVHSGVCTDPQPLKEQPALNDSRYCLSSRLRVSATFWQNPRNHFRCQVQFYGLSENDEWTQDRAKPVTQIVSAEAWGRADCGFTSESYQQGVLSATILYEILLGKATLYAVLVSALVLMAMVKRKDSRG
Turning to B4, in experiment [1], the T cell activation EC50 (CD137 vs G12D peptide dose), TRAC/TRBC double knockout T cells was 6.4 nM and the T cell activation EC50 (CD137 vs G12D peptide dose), WT TRAC/TRBC T cells stood at 12.2 nM. In experiment [2], the T cell activation EC50 (CD137 vs G12D peptide dose), TRAC/TRBC double knockout T cells stood at 14.3 nM and the T cell activation EC50 (CD137 vs G12D peptide dose), WT TRAC/TRBC T cells turned out to be 24 nM.

B5: TCR6 (TCR, V domains shown)
Valpha: GQQLNQSPQSMFIQEGEDVSMNCTSSSIFNTWLWYKQDPGEGPVLLIALYKAGELTSNGRLTAQFGITRKDSFLNISASIPSDVGIYFCAGRREGAQKLVFGQGTRLTINP
Vbeta: GAGVSQSPRYKVAKRGQDVALRCDPISGHVSLFWYQQALGQGPEFLTYFQNEAQLDKSGLPSDRFFAERPEGSVSTLKIQRTQQEDSAVYLCASSSTLMGVNIQYFGAGTRLSVL
Turning to B5, the EC50 of peptide worked out at 6.4 nM in experiment [3], 24 nM in experiment [4], 12.2 nM in experiment [5] and 14.3 nM in experiment [6].

B6: TCR91 (TCR)
TCR alpha: AQKVTQAQTEISVVEKEDVTLDCVYETRDTTYYLFWYKQPPSGELVFLIRRNSFDEQNEISGRYSWNFQKSTSSFNFTITASQVVDSAVYFCALNEGGGSTLGRLYFGRGTQLTVWPDIQNPDPAVYQLRDSKSSDKSVCLFTDFDSQTNVSQSKDSDVYITDKCVLDMRSMDFKSNSAVAWSNKSDFACANAFNNSIIPEDTFFPSPESSCDVKLVEKSFETDTNLNFQNLSVIGFRILLLKVAGFNLLMTLRLWSS
TCR beta: MGPGLLHWMALCLLGTGHGDAMVIQNPRYQVTQFGKPVTLSCSQTLNHNVMYWYQQKSSQAPKLLFHYYDKDFNNEADTPDNFQSRRPNTSFCFLDIRSPGLGDAAMYLCATSTGRVYQPQHFGDGTRLSILEDLNKVFPPEVAVFEPSEAEISHTQKATLVCLATGFFPDHVELSWWVNGKEVHSGVCTDPQPLKEQPALNDSRYCLSSRLRVSATFWQNPRNHFRCQVQFYGLSENDEWTQDRAKPVTQIVSAEAWGRADCGFTSVSYQQGVLSATILYEILLGKATLYAVLVSALVLMAMVKRKDFGGSG
In experiment [1], B6 had a T cell activation EC50 (CD137 vs G12D peptide dose), TRAC/TRBC double knockout T cells of 14.4 nM and a T cell activation EC50 (CD137 vs G12D peptide dose), WT TRAC/TRBC T cells of 179 nM. In addition, in experiment [2], the Cmax (%) of CD137 T cell activation by G12D peptide, without knockout of TRAC and TRBC was determined as 14.4%; the T cell activation EC50 (CD137 vs G12D peptide dose), TRAC/TRBC double knockout T cells worked out at 36.5 nM; the T cell activation EC50 (CD137 vs G12D peptide dose), WT TRAC/TRBC T cells was 131 nM.

B7: TCR1 (TCR)
TCR alpha: GDSVTQMEGPVTLSEEAFLTINCTYTATGYPSLFWYVQYPGEGLQLLLKATKADDKGSNKGFEATYRKETTSFHLEKGSVQVSDSAVYFCALSDRVGGARLMFGDGTQLVVKPNIQNPDPAVYQLRDSKSSDKSVCLFTDFDSQTNVSQSKDSDVYITDKCVLDMRSMDFKSNSAVAWSNKSDFACANAFNNSIIPEDTFFPSPESSCDVKLVEKSFETDTNLNFQNLSVIGFRILLLKVAGFNLLMTLRLWSS
TCR beta: DIYQTPRYLVIGTGKKITLECSQTMGHDKMYWYQQDPGMELHLIHYSYGVNSTEKGDLSSESTVSRIRTEHFPLTLESARPSHTSQYLCASSEGLYNEQFFGPGTRLTVLEDLKNVFPPEVAVFEPSEAEISHTQKATLVCLATGFYPDHVELSWWVNGKEVHSGVCTDPQPLKEQPALNDSRYCLSSRLRVSATFWQNPRNHFRCQVQFYGLSENDEWTQDRAKPVTQIVSAEAWGRADCGFTSESYQQGVLSATILYEILLGKATLYAVLVSALVLMAMVKRKDSRG
Turning to B7, the T cell activation EC50 (CD137 vs G12D peptide dose), TRAC/TRBC double knockout T cells in experiment [1] was 12.2 nM; in experiment [2], 64.1 nM. In addition, the values for the T cell activation EC50 (CD137 vs G12D peptide dose), WT TRAC/TRBC T cells in experiment [1] and in experiment [2] were 51.1 nM and 119 nM, respectively.

B8: TCR4 (TCR)
TCR alpha: QKEVEQDPGPLSVPEGAIVSLNCTYSNSAFQYFMWYRQYSRKGPELLMYTYSSGNKEDGRFTAQVDKSSKYISLFIRDSQPSDSATYLCAMGALNSGAGSYQLTFGKGTKLSVIPNIQNPDPAVYQLRDSKSSDKSVCLFTDFDSQTNVSQSKDSDVYITDKCVLDMRSMDFKSNSAVAWSNKSDFACANAFNNSIIPEDTFFPSPESSCDVKLVEKSFETDTNLNFQNLSVIGFRILLLKVAGFNLLMTLRLWSS
TCR beta: KAGVTQTPRYLIKTRGQQVTLSCSPISGHRSVSWYQQTPGQGLQFLFEYFSETQRNKGNFPGRFSGRQFSNSRSEMNVSTLELGDSALYLCASSLSSGTGTEAFFGQGTRLTVEDLKNVFPPEVAVFEPSEAEISHTQKATLVCLATGFYPDHVELSWWVNGKEVHSGVCTDPQPLKEQPALNDSRYCLSSRLRVSATFWQNPRNHFRCQVQFYGLSENDEWTQDRAKPVTQIVSAEAWGRADCGFTSESYQQGVLSATILYEILLGKATLYAVLVSALVLMAMVKRKDSRG
Regarding B8, in experiment [1], the T cell activation EC50 (CD137 vs G12D peptide dose), TRAC/TRBC double knockout T cells was determined as 4.4 nM and the T cell activation EC50 (CD137 vs G12D peptide dose), WT TRAC/TRBC T cells came to 31.1 nM. Also, in experiment [2], the Cmax (%) of CD137 T cell activation by G12D peptide, without knockout of TRAC and TRBC is 16%; the T cell activation EC50 (CD137 vs G12D peptide dose), TRAC/TRBC double knockout T cells stood at 11.8 nM; the T cell activation EC50 (CD137 vs G12D peptide dose), WT TRAC/TRBC T cells stood at 49.8 nM.
